Source: patent US20160311918A1, “Anti-Ron Monoclonal Antibodies as a Cytotoxic Drug Delivery System for Targeted Cancer Therapy” (TEXAS TECH UNIVERSITY SYSTEM, priority 2013, published 2016)
Where “and” joins values, the source holds several entries; their conditions need not be identical. Identical values can stand only once.

Key:
HT29 cells = assay: Cell viability assay, HT29; format: cell-based, human; conditions: read-out: IC50 cell viability, free DM1
Procedure: (§1) Cell viability was determined by the MTS assay. […] Morphological changes were observed under the Olympus BK-41 inverted microscope and photographed. […] FIG. 3D: Cell death percentages were determined by the trypan blue exclusion method.
(§2) Cell viability and death assays: Cell viability 72 h after Zt/g4-DM1 treatment was determined by the MTT assay (22). Viable or dead cells were determined by the trypan blue exclusion assay. A total of 900 cells were counted from three individual wells to reach the percentages of dead cells.
(§3) The effect of Zt/g4-DM1 on cell viability was determined. […] The cells were treated with Zt/g4-DM1.

SW620 cells = assay: Cell viability assay, SW620; format: cell-based, human; conditions: read-out: IC50 cell viability, free DM1
Procedure: as §1, §2, §3

HCT116 cells = assay: Cell viability assay, HCT116; format: cell-based, human; conditions: read-out: IC50 cell viability, free DM1
Procedure: as §1, §2, §3

[1] = target: T1, human RON receptor tyrosine kinase (recepteur d'origine nantais) (human, UniProt Q04912 25-1400); assay: cell-based or functional assay
[2] = target: T1, human RON receptor tyrosine kinase …; assay: cell-based or functional assay; remark: listed apart in the source
[3] = target: T1, human RON receptor tyrosine kinase …; assay: direct binding, ELISA, IHC, Western blotting, flow cytometry
[4] = target: T2, oncogenic RON variant RON160 (human, UniProt Q04912 25-1400, limits assumed); assay: receptor binding studies; format not stated
T2 construct: also called RONΔ160

RON = RON (Homo sapiens, UniProt Q04912); assay: Classification of anti-RON mAbs by activity upon binding to RON; format: cell-based
From the text: Using an advanced living cell immunization method, the present inventors were able to generate mAbs specific only to the RON extracellular domains. Using flow cytometer in conjunction with biological assays, the present inventors characterize our anti-RON mAbs for their specificity and sensitivity. […] This is based on direct binding, ELISA, IHC, Western blotting and other biochemical and biological assays. Moreover, based on their activities upon binding to RON, the present inventors were able to classify the anti-RON mAb into three categories. […] This type of anti-RON mAbs is considered as agnostic antibodies. The representatives are Zt/g4, Zt/c1, Zt/c9, Zt/f1, and Zt/H12. […] The typical examples are Zt/g9 and Zt/c8. […] One example is Zt/f2. The present inventors considered this type of mAb having therapeutic potentials.

mouse RON homologue = target: T3, mouse RON homologue (Mus musculus, UniProt Q62190); conditions: cited from earlier work
T3 sequence (Q62190 24-1378): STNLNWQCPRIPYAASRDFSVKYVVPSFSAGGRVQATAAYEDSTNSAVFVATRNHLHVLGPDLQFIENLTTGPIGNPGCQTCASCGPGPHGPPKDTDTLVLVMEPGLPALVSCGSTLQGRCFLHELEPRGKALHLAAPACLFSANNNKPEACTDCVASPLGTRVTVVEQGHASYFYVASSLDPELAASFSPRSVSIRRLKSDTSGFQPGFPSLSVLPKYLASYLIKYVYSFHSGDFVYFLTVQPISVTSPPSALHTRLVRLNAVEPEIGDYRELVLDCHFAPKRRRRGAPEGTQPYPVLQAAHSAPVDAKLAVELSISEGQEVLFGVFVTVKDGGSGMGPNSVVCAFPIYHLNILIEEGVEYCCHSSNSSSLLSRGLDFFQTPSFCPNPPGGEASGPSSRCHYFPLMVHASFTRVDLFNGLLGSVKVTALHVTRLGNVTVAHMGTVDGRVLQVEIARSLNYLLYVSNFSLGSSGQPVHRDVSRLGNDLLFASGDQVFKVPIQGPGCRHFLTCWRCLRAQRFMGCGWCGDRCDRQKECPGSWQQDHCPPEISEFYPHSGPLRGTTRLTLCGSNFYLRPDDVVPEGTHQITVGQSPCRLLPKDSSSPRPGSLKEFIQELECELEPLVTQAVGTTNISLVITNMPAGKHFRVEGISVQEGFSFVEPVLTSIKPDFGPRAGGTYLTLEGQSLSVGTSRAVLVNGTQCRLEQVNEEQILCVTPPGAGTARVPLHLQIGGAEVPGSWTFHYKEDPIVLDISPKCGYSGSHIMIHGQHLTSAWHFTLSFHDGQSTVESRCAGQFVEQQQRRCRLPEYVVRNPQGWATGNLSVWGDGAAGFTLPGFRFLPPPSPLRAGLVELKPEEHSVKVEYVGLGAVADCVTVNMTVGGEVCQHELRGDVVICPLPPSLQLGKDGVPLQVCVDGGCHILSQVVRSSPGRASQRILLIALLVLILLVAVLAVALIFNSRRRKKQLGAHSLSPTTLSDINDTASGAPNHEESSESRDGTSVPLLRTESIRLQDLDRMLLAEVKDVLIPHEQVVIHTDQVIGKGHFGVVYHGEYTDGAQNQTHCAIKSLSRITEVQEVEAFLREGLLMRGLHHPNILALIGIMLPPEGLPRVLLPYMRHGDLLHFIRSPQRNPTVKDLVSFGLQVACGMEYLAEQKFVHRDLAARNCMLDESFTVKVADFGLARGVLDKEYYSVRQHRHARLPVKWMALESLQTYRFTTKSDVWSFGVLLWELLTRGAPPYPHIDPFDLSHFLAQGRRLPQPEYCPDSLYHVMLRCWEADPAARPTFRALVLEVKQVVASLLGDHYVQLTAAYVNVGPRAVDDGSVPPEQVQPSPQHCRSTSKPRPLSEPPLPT

cell surface RON = cell surface RON (Homo sapiens, UniProt Q04912); assay: Antibody-induced RON endocytosis in cancerous cells; format: cell-based; design: cause rapid and significant amount of cell surface RON internalization in cancerous cells; endogenous in cells
From the text: During characterization of anti-RON mAbs, the present inventors discovered that agonistic anti-RON mAb such as Zt/g4 and Zt/c1 binds to RON and cause rapid and significant amount of cell surface RON internalization in cancerous cells (a process known as antibody-induced receptor endocytosis). […] Fab fragments that fail to cause RON activation cannot induce RON endocytosis. In light of these findings, the present inventors conclude that anti-RON mAb-induced RON endocytosis can be used as a pharmaceutical means for targeted drug delivery.

[5] = tested on: human pancreatic cancer cells; assay: PDAC cell viability in combination with chemotherapeutics; format: cell-based
Procedure: In vitro cell viability and death assays: Cell viability after treatment of Zt/g4-DM1, chemotherapeutics, and their combinations was determined by the MTT assay. Cell death was determined by the trypan blue exclusion assay.
FIGS. 10A to 10D are graphs that show the effect of Zt/g4-DM1 on pancreatic cancer cell cycle, viability, and apoptotic death. […] FIG. 12 are graphs that show synergism between Zt/g4-DM1 and chemotherapeutics by isobolograms.

cell surface RON, sequence (Q04912 25-1400): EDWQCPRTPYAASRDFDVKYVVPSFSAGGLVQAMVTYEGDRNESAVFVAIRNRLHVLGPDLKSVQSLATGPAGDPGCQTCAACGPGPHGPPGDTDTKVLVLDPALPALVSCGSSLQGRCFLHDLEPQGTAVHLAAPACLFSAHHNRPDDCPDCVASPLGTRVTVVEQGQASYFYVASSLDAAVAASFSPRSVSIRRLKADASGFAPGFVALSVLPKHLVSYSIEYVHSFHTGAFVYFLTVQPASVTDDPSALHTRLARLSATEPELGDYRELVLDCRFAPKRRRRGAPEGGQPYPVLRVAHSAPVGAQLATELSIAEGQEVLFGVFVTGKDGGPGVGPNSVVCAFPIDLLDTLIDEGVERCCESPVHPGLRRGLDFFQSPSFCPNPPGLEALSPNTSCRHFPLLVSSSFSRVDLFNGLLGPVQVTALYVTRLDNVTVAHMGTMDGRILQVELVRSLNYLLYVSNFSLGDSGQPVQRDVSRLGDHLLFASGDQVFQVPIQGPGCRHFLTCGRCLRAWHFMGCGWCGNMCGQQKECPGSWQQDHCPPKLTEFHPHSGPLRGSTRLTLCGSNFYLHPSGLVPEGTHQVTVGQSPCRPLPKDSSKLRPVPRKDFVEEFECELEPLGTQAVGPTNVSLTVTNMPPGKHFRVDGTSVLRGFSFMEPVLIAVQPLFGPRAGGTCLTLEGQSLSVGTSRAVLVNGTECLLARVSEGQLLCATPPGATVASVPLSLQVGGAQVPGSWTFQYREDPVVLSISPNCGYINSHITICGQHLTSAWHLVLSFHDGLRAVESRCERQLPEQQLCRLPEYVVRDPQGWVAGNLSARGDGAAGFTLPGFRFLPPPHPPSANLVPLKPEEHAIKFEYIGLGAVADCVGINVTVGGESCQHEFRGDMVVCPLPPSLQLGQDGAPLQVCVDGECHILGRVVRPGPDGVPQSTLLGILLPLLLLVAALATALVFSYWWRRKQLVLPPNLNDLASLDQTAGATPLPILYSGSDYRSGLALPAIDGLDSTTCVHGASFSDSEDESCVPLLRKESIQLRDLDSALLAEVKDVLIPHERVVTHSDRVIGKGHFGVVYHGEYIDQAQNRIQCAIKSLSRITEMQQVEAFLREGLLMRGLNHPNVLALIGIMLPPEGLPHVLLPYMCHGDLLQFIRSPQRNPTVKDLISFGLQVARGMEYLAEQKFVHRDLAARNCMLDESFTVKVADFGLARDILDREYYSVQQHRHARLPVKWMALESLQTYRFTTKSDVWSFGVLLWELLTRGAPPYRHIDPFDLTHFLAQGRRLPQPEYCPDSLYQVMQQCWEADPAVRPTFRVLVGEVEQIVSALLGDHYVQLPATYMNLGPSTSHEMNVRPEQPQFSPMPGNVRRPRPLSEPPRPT
RON, sequence (Q04912 25-1400): as above

Which results are given for COc1cc2cc(c1Cl)N(C)C(=O)C[C@H](OC(=O)[C@H](C)N(C)C(=O)CCS)[C@]1(C)O[C@H]1[C@H](C)[C@@H]1C[C@@](O)(NC(=O)O1)[C@H](OC)/C=C/C=C(\C)C2 [DM1, Maytansinoid (DM1)]?
IC50 (HT29 cells): 4.4 nM; IC50 (SW620 cells): 3.2 nM; IC50 (HCT116 cells): 4.1 nM

B1: anti-RON antibody Zt/g4-maytansinoid (DM1) conjugate Zt/g4-DM1 (antibody, V domains shown)
VH: EVQLQQSGAELVKPGASVKLSCTTSGFNIIDTYIHWVNQKPDQGLEWIGRIDPADGNRKSDPKFQVKATITVDTSSNTAYLQLSSLTSGDTAVYYCARGYGNLNAMDSWGQGTSVTVSS
VL: DIQMNQSPSSLSASLGDTITITCHASQNINVWLNWYQQKPGNIPKLLIYKASNLHTGVPSRFSGSGSGTGFTLTISSLQPEDIATYYCQQGQSYPLTFGGGTKLEIK
modifications: DM1 conjugated by non-reducible thioether linkage (SMCC) through lysine residues in the antibody molecule; sites not stated; DM1 conjugated by non-reducible thioether linkage (SMCC) through lysine residues in the antibody molecule; average DAR 3.724; sites not stated
With B1 as the molecule, how does the “IC50 of cell death at 72 h, three CRC cell lines” value [1] read?
The value was 5 to 7 µg/mL.

What about the “IC50 of cell viability at 72 h, HCT116 cells” value [1] of the same molecule?
The value was 2.16 µg/mL.

And the “IC50 of cell viability at 72 h, HT29 cells” value [1]?
The value was 1.64 µg/mL.

And the “IC50 of cell viability at 72 h, SW620 cells” value [1]?
Its value is 4.03 µg/mL.

What about the “IC50 of cell viability, DLD1 cells” value [1] of the same molecule?
Its value is 20.4 µg/mL.

What about the “average IC50 value in causing cell death, three PDAC cell lines (L3.6pl, BxPC-3, FG)” value [1] of the same molecule?
The value was 3.13 µg/mL.

What about the “IC50 value, cytotoxic effect on HT-29 cells” value [2] of the same molecule?
The value was 1.25 µg/mL and 8.32 nM.

B2: Zt/g4-MMAE (antibody, V domains shown)
VH: EVQLQQSGAELVKPGASVKLSCTTSGFNIIDTYIHWVNQKPDQGLEWIGRIDPADGNRKSDPKFQVKATITVDTSSNTAYLQLSSLTSGDTAVYYCARGYGNLNAMDSWGQGTSVTVSS
VL: DIQMNQSPSSLSASLGDTITITCHASQNINVWLNWYQQKPGNIPKLLIYKASNLHTGVPSRFSGSGSGTGFTLTISSLQPEDIATYYCQQGQSYPLTFGGGTKLEIK
modifications: monomethyl auristatin E (MMAE) conjugated; average drug to antibody ratio 3.8:1; sites not stated
With B2 as the molecule, how does the “average IC50 value in causing cell death, three PDAC cell lines (L3.6pl, BxPC-3, FG)” value [1] read?
The value was 5.16 µg/mL.

B3: mouse anti-RON monoclonal antibody Zt/g4 (antibody, V domains shown)
VH: EVQLQQSGAELVKPGASVKLSCTTSGFNIIDTYIHWVNQKPDQGLEWIGRIDPADGNRKSDPKFQVKATITVDTSSNTAYLQLSSLTSGDTAVYYCARGYGNLNAMDSWGQGTSVTVSS
VL: DIQMNQSPSSLSASLGDTITITCHASQNINVWLNWYQQKPGNIPKLLIYKASNLHTGVPSRFSGSGSGTGFTLTISSLQPEDIATYYCQQGQSYPLTFGGGTKLEIK
notes: Mouse IgG1a/kappa from hybridoma; The leader is not part of the antibody as tested; also called free Zt/g4; anti-RON mAb Zt/g4
Does B3 bind [3]?
Result: binds

B4: mouse monoclonal antibody Zt/f2 specific to human RON (antibody, V domains shown)
VH: QVQLQQSGAELAKPGASVKMSCKASGYTFTSYWMHWVKQRPGQGLEWIGYINPSTGYIEYNQNFKDKATLTADKSSSTAYMQLSSLTSEDSAVYYCARSPSHYYGSRYGYFDVWGAGTTVTVSS
VL: QIVLSQSPAILSASPGEKVTMTCRASSSVSYMHWYQQKPGSSPKPWIYATSNLASGVPARFSGSGSGTSYSLTISRVEAEDAATYYCQQWSSNPRTFGGGTKLEIK
notes: Mouse IgG2a; also called anti-RON mAb Zt/f2
Which EC50 [4] does the source give for B4 here?
Its EC50 is 2.3 nM.

B5: Zt/g4: mouse monoclonal antibody (IgG1α/κ) highly specific to human RON, recognizes the RON sema domain (antibody, V domains shown)
VH: EVQLQQSGAELVKPGASVKLSCTTSGFNIIDTYIHWVNQKPDQGLEWIGRIDPADGNRKSDPKFQVKATITVDTSSNTAYLQLSSLTSGDTAVYYCARGYGNLNAMDSWGQGTSVTVSS
VL: DIQMNQSPSSLSASLGDTITITCHASQNINVWLNWYQQKPGNIPKLLIYKASNLHTGVPSRFSGSGSGTGFTLTISSLQPEDIATYYCQQGQSYPLTFGGGTKLEIK
Which results are given for B5?
activity upon binding to RON (RON): cause transient RON phosphorylation; species recognition of RON (mouse RON homologue): only recognizes human RON but not mouse RON homologue; absence of RON expression in cancerous cells in culture (cell surface RON; after endocytosis): up to 72 h; cell surface RON internalization (cell surface RON; within 24 h, 10 μg/ml/1×10^6 cancer cells): almost all cell surface RON is internalized

B6: Zt/g4-MMAE: Zt/g4 conjugated to monomethyl auristatin E (MMAE) (conjugate)
VH: EVQLQQSGAELVKPGASVKLSCTTSGFNIIDTYIHWVNQKPDQGLEWIGRIDPADGNRKSDPKFQVKATITVDTSSNTAYLQLSSLTSGDTAVYYCARGYGNLNAMDSWGQGTSVTVSS
VL: DIQMNQSPSSLSASLGDTITITCHASQNINVWLNWYQQKPGNIPKLLIYKASNLHTGVPSRFSGSGSGTGFTLTISSLQPEDIATYYCQQGQSYPLTFGGGTKLEIK
What does the source list for B6?
combination effect on viability of human pancreatic cancer cells ([5]; in combination with Gemcitabine): synergistic activity; combination effect on viability of human pancreatic cancer cells ([5]; in combination with Oxaliplatin): synergistic activity
